Like-named read-outs stand apart in the source and are kept apart here.

In test [1] the target is T1, W3XX115-T2U0.E44-6.uIgG4V322 (human, UniProt P60568 21-149).
T1 construct: IL-2 del STLT; E44 format, IgG4 FALA; IL-2 part tied by the design 'Del STLT'; not shown: IgG4 hinge-Fc with FALA (uIgG4V322), no linker
Description: SPR (Biacore 8K): variant pre-mixed 1:1 with human IL-2Rβ ECD (W369-hPro2.ECD.His), injected over immobilised human IL-2Rγc [panel 2 of the upper row].

The target in test [2] is T2, Human IL-2Rβ/γ (intermediate affinity IL-2 receptor) (human, UniProt P14784 27-551; P31785 23-369).
T2 construct: whole, on cells; also called IL-2Rβ/γc; IL-2Rβ (CD122) and γ (CD132)
T2 sequence (looked up) 1: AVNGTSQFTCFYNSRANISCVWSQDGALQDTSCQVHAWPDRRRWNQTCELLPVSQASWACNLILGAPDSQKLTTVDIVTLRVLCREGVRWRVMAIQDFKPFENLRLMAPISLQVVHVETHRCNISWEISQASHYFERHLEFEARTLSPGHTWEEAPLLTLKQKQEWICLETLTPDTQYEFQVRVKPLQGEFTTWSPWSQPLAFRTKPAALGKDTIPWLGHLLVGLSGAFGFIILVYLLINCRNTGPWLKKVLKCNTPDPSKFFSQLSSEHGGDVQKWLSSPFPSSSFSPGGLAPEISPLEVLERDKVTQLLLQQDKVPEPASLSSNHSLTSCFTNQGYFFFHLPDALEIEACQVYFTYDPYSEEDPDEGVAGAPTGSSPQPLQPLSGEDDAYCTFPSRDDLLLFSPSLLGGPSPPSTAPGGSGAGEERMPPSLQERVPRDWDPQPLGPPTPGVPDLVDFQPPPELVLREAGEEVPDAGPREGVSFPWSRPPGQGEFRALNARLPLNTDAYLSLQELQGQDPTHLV
T2 sequence (looked up) 2: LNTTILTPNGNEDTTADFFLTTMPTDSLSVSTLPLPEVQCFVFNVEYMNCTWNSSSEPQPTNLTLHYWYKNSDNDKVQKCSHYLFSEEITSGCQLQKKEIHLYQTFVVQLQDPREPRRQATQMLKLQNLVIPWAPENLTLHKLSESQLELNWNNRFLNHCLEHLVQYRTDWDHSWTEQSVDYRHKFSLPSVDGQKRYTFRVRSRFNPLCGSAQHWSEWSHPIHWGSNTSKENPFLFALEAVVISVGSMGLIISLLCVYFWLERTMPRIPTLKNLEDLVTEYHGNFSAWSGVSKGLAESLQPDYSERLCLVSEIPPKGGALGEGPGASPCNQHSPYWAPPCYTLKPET
Description: FACS, HH cells; EC50 fold vs T2U0.E44-1. Summed up: (§1)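 HH (IL-2Rβ/γ), MJ20 and NK92 (IL-2Rα/β/γ) cells incubated with IL-2/Fc fusion proteins at indicated concentrations, 30 min at 4° C to avoid internalization. Bound protein detected with PE-anti-human Fc, 30 min at 4° C; median fluorescence intensity read by FACS.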

The target in test [3] is T2, Human IL-2Rβ/γ (intermediate affinity …). Description: FACS, HH cells. An outline of the steps:
as §1
(In flow cytometry, cells or beads pass a laser one at a time.)

The target is the same in test [4]. The experiment in a line: FACS, HH cells. On the procedure:
(§2) Human cutaneous T cell lymphoma HH cells, malignant non-Hodgkin's lymphoma NK92 cells and cutaneous T cell lymphoma MJ20 cells were used for binding assay. They both constitutively express IL-2Rβ (CD122) and […] (CD132), and NK92 and MJ20 also expresses IL-2Rα (CD25). HH, NK92 and MJ20 cells were cultured following ATCC guidance, then transferred to a 96-plate for binding analysis. Cells were incubated with IL-2/Fc fusion proteins at the indicated concentrations for 30 min at 4° C. to avoid internalization. Binding was detected by 2nd antibody of PE-anti-human Fc at 4° C. for another 30 min. The median fluorescence intensity (MFI) on HH and NK92 cells was measured using FACS.
The source holds these as a separate data set.

For test [5], the target named is T3, Human IL-2Rα/β/γ complex (high affinity IL-2 receptor) (human, UniProt P01589 22-272; P14784 27-551; P31785 23-369).
T3 sequence (looked up) 1: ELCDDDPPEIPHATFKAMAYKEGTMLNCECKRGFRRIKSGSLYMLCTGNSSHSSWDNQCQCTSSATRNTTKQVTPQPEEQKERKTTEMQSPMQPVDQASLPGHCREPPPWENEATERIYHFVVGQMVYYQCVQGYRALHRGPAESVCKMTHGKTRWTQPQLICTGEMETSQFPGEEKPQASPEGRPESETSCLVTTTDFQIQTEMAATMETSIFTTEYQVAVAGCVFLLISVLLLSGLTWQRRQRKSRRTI
T3 sequence (looked up) 2: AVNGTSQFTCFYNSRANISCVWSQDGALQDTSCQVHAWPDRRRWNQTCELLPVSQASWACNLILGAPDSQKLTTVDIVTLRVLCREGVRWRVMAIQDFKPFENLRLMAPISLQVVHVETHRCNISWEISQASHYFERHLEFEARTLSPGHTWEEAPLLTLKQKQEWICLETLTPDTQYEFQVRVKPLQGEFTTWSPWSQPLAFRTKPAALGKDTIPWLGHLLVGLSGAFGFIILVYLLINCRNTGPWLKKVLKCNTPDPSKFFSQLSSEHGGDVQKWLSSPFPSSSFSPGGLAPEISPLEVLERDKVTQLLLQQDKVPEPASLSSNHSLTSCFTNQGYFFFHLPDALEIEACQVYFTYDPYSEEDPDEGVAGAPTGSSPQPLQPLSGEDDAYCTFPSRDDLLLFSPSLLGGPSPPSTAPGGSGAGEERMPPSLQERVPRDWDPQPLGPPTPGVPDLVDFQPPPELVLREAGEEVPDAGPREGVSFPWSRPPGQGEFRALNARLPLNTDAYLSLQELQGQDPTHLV
T3 sequence (looked up) 3: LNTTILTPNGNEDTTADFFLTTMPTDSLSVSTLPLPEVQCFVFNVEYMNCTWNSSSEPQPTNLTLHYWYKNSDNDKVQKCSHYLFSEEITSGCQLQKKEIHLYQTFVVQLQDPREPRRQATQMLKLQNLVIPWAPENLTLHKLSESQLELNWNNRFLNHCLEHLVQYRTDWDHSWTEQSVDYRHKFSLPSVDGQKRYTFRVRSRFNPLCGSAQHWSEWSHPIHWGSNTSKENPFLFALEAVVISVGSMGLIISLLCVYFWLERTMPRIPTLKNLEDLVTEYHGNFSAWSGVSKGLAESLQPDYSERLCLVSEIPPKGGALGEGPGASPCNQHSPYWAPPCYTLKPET
Description: cell-based or functional assay.

Test [6] concerns the target T2, Human IL-2Rβ/γ (intermediate affinity …). Description: cell-based or functional assay.
The target is the same in test [7]. Description: FACS, HH cells; EC50 fold vs T2U0.E44-1. On the procedure:
as §2
This is another data set of the same source.

For test [8], the target named is T3, Human IL-2Rα/β/γ complex (high affinity …). The experiment in a line: FACS, NK92 cells; EC50 fold vs T2U0.E44-1. An outline of the steps: as §1
Test [9] shares this target. Description: FACS, NK92 cells. An outline of the steps: as §1
For test [10] the target is unchanged. The experiment in a line: cell-based or functional assay. This is another data set of the same source.
Test [11] deals with T2, Human IL-2Rβ/γ (intermediate affinity …). The experiment in a line: cell-based or functional assay. The source holds these as a separate data set.

B1: W369-hPro1.ECD.His, IL-2Rγ ECD (receptor)
chain: LNTTILTPNGNEDTTADFFLTTMPTDSLSVSTLPLPEVQCFVFNVEYMNCTWNSSSEPQPTNLTLHYWYKNSDNDKVQKCSHYLFSEEITSGCQLQKKEIHLYQTFVVQLQDPREPRRQATQMLKLQNLVIPWAPENLTLHKLSESQLELNWNNRFLNHCLEHLVQYRTDWDHSWTEQSVDYRHKFSLPSVDGQKRYTFRVRSRFNPLCGSAQHWSEWSHPIHWGSNTSKENLEGGGGSGGGGHHHHHH
notes: Entry includes linker and C-terminal 6xHis tag; also called IL-2Rγc; CD132
For B1, the binding result in test [1] is on record as “binds”.

B2: W3XX115-T3U0.E44-1.uIgG4V1 (Fc fusion)
chain: APTSSSTKKTQLQLEHLLLDLQMILNGINNYKNPKLTRMLTAKFAMPKKATELKHLQCLEEELKPLEEVLNGAQSKNFHLRPRDLISNINVIVLELKGSETTFMCEYADETATIVEFLNRWITFCQSIISTLTESKYGPPCPPCPAPEFLGGPSVFLFPPKPKDTLMISRTPEVTCVVVDVSQEDPEVQFNWYVDGVEVHNAKTKPREEQFNSTYRVVSVLTVLHQDWLNGKEYKCKVSNKGLPSSIEKTISKAKGQPREPQVYTLPPCQEEMTKNQVSLWCLVKGFYPSDIAVEWESNGQPENNYKTTPPVLDSDGSFFLYSRLTVDKSRWQEGNVFSCSVMHEALHNHYTQKSLSLSLG
heavy: EIQLQQSGPELVKPGASVKVSCKASGYSFTDYNMYWVKQSHGESLEWIGYIDPYNGGTRYNQKFKGKATLTVDKSSSTAFMHLNSLTSEDSAVYYCARNGHWDGAWFAYWGQGTLVTVSAASTKGPSVFPLAPCSRSTSESTAALGCLVKDYFPEPVTVSWNSGALTSGVHTFPAVLQSSGLYSLSSVVTVPSSSLGTKTYTCNVDHKPSNTKVDKRVESKYGPPCPPCPAPEFLGGPSVFLFPPKPKDTLMISRTPEVTCVVVDVSQEDPEVQFNWYVDGVEVHNAKTKPREEQFNSTYRVVSVLTVLHQDWLNGKEYKCKVSNKGLPSSIEKTISKAKGQPREPQVCTLPPSQEEMTKNQVSLSCAVKGFYPSDIAVEWESNGQPENNYKTTPPVLDSDGSFFLVSRLTVDKSRWQEGNVFSCSVMHEALHNHYTQKSLSLSLG
light: DIQMNQSPSSLSASLGDTITITCHASQNINVWLSWYQQKPGNIPKLLIYKASNLHTGVPSRFSGSRSGTGFTLTISSLQPEDIATYYCHQGQSYPFTFGSGTKLEIKRTVAAPSVFIFPPSDEQLKSGTASVVCLLNNFYPREAKVQWKVDNALQSGNSQESVTEQDSKDSTYSLSSTLTLSKADYEKHKVYACEVTHQGLSSPVTKSFNRGEC
notes: E44 format, IgG4
On to B2, for which the Affinity reduction in test [2] was 1 fold; in test [7], 1 fold; in [8], 20.7 fold. Moreover, the figures for the EC50 in [3], in [4] and in test [9] were 72.9 nM, 24.5 nM and 145 nM, respectively. Also, in test [5], the “Potency in human Treg EC50” value was 2.48 nM. In addition, in test [5], the “Potency reduction (Treg)” value was 652 fold. Besides, the “Potency in human CD8+ T EC50” value in test [6] is 7.53 nM. In test [6], the “Potency reduction (CD8+ T)” value is 0.74 fold. Also, the “Human Treg Potency EC50 (STAT5 phosphorylation)” value in [10] was found to be 3.52 nM. The “Human Treg Potency reduction” value in [10] stood at 296 fold. Further, in test [11], the “Human CD8+ T Potency EC50 (STAT5 phosphorylation)” value was 7.14 nM. Further, the “Human CD8+ T Potency reduction” value in test [11] stood at 0.69 fold.

B3: W3XX115-T2U0.E44-20.uIgG4V1 (Fc fusion)
chain: APTSSSTKKTQLQLEHLLLDLQMILNGINNYKNPKLTWMLTFKFYMPKKATELKHLQCLEEELKPLEEVLNLAQSKNFHLRPRDLISNINVIVLELKGSETTFMCEYADETATIVEFLNRWITFCQSIIESKYGPPCPPCPAPEFLGGPSVFLFPPKPKDTLMISRTPEVTCVVVDVSQEDPEVQFNWYVDGVEVHNAKTKPREEQFNSTYRVVSVLTVLHQDWLNGKEYKCKVSNKGLPSSIEKTISKAKGQPREPQVYTLPPCQEEMTKNQVSLWCLVKGFYPSDIAVEWESNGQPENNYKTTPPVLDSDGSFFLYSRLTVDKSRWQEGNVFSCSVMHEALHNHYTQKSLSLSLG
heavy: EIQLQQSGPELVKPGASVKVSCKASGYSFTDYNMYWVKQSHGESLEWIGYIDPYNGGTRYNQKFKGKATLTVDKSSSTAFMHLNSLTSEDSAVYYCARNGHWDGAWFAYWGQGTLVTVSAASTKGPSVFPLAPCSRSTSESTAALGCLVKDYFPEPVTVSWNSGALTSGVHTFPAVLQSSGLYSLSSVVTVPSSSLGTKTYTCNVDHKPSNTKVDKRVESKYGPPCPPCPAPEFLGGPSVFLFPPKPKDTLMISRTPEVTCVVVDVSQEDPEVQFNWYVDGVEVHNAKTKPREEQFNSTYRVVSVLTVLHQDWLNGKEYKCKVSNKGLPSSIEKTISKAKGQPREPQVCTLPPSQEEMTKNQVSLSCAVKGFYPSDIAVEWESNGQPENNYKTTPPVLDSDGSFFLVSRLTVDKSRWQEGNVFSCSVMHEALHNHYTQKSLSLSLG
light: DIQMNQSPSSLSASLGDTITITCHASQNINVWLSWYQQKPGNIPKLLIYKASNLHTGVPSRFSGSRSGTGFTLTISSLQPEDIATYYCHQGQSYPFTFGSGTKLEIKRTVAAPSVFIFPPSDEQLKSGTASVVCLLNNFYPREAKVQWKVDNALQSGNSQESVTEQDSKDSTYSLSSTLTLSKADYEKHKVYACEVTHQGLSSPVTKSFNRGEC
notes: IL-2 del STLT and R38W; E44 format, IgG4
As for B3, the EC50 – broadly, the concentration giving half of the maximal effect – in [4] amounted to 336 nM; in test [9], 232 nM. Also, the values for the Affinity reduction in test [7] and in test [8] were 13.5 fold and 33.1 fold, respectively. Besides, in test [10], the “Human Treg Potency EC50 (STAT5 phosphorylation)” value amounted to 2.06 nM. Also, the “Human Treg Potency reduction” value in test [10] stood at 173 fold. For the same molecule, the “Human CD8+ T Potency EC50 (STAT5 phosphorylation)” value in test [11] stood at 323 nM. For the same molecule, the “Human CD8+ T Potency reduction” value in test [11] was found to be 31.4 fold.

Values taken from patent publication US20250000946A1 (WUXI BIOLOGICS IRELAND, published 2025).
